The target of the experiment is α-synuclein aggregates (small fibrils, oligomeric/protofibrillary species) formed in the aggregation reaction (UniProt P37840).

In turn, “human serum high-density lipoprotein (HDL) (complex)” displayed a diagnostic α-syn SAA on PD CSF, increase of the time to reach the fluorescence threshold of 5000 a.u. (TTT) against neat samples, HDL at 2X (~ 24%) and 5X the CSF physiological concentration of 55%.

These data come from article PMC10068178.
